Assay results reported in patent US12023367B2, “Immunomodulation for the long term prevention and treatment of autoimmune diseases and foreign tissue rejection” (University of Louisville Research Foundation, Inc., priority 2015, dated 2024).

Experiments:
[1] = tested on: C57BL/6 mice; assay: Mixed hematopoietic allogeneic chimerism after bone marrow transplantation, 100 cGy total body irradiation, with cyclophosphamide; details: mouse, in vivo
Protocol: C57BL/6 mice were subjected to 100 cGy total body irradiation followed by intravenous transplantation of 30×10^6 unmodified (BMC) or the combination of SA-FasL and SA-IL-2 (mFasL/IL-2-BMC) one day later. […] All groups were treated i.p. with rapamycin (2 mg/kg) daily for 10 doses starting on day 6 pot-transplantation. The test group was also treated starting on day 6 post-transplantation with both soluble SA-FasL (sFasL; 500 ng/daily for 15 doses) and IL-2 (25,000 IU/daily for 7 doses). Percent donor chimerism at various times post-transplantation was assessed using peripheral blood lymphocytes with antibodies against donor class I MHC molecule in flow cytometry.
The tissues were, processed into single cell suspension, stained with antibodies to the indicated cell surface markers, and analyzed using flow cytometry.

[2] = target: streptavidin (Streptomyces avidinii, UniProt P22629); details: cited from earlier work
[3] = target: avidin (Gallus gallus, UniProt P02701); details: cited from earlier work
[4] = tested on: STZ diabetic C57BL/6 mice; assay: Intraportal allogeneic islet transplantation (BALB/c-to-C57BL/6), soluble SA-FasL; assay type: in vivo
Protocol: FIG. 2. Survival of allogeneic islets transplanted intraportally with different treatment protocols. BALB/c islets were engineered with SA-FasL protein and transplanted intraportally into STZ diabetic C57BL/6 mice. Rapa was used daily at 0.2 mg/kg for 15 doses starting on day of transplantation. Soluble (s)FasL was used at the indicated dose and regimens.
To further establish SA-FasL as a soluble biologic, we tested its immunomodulatory capacity for the prevention of allogeneic islets transplanted using a more stringent model of intraportal islet transplantation. The rationale for this model is twofold. First, intraportal islet transplantation is the only site practiced in the clinic. Second, intraportal islet transplantation provides a much more stringent model as compared to subrenal islet transplantation. […] Therefore, we used this model to test if SA-FasL can be developed as a soluble biologic for the prevention and treatment of type I diabetes and foreign graft rejection.

[5] = tested on: Female NOD mice; assay: Prevention of type 1 diabetes in NOD mice; assay type: in vivo
Protocol: FIG. 5. Systemic treatment with SA-FasL protein delays the onset and incidence of Type 1 Diabetes in NOD. Female NOD mice were treated with the indicated agents at 10-week of age. Mice were then monitored for hyperglycemia by urine glucose test, which was confirmed by a blood glucose test. Mice with >200 mg/dl blood glucose levels were considered diabetic. Soluble (s)SA-FasL in PBS was used at 500 ng/injection intraperitoneally daily for 30 days. […] Female mice without any treatment were used as controls. In the SA-FasL only treatment group, 3 diabetic mice were treated with an additional 10 daily doses (black arrows) of SA-FasL soon after incidence of diabetes, resulting in temporary remission of hyperglycemia in ⅔ of those mice.
Inasmuch as antigen-experienced cells express Fas receptor on their surface, systemic treatment with SA-FasL has potential to eliminate such cells and control/reverse T1D without a major effect on quiescent T cell repertoire. This notion was tested by treating 10-wk female NOD mice daily with 500 ng SA-FasL protein for 30 days. […] We next asked the question if SA-FasL will work in synergy with IL-2. […] Indeed, T regulatory cells express FasL on their surface and control T effector responses by direct elimination via Fas receptor or indirectly by eliminating Fas-expressing DCs.

[6] = tested on: STZ diabetic C57BL/6 mice; assay: Allogeneic islet transplantation under the kidney capsule (BALB/c-to-C57BL/6); assay type: in vivo
Protocol: FIG. 1. Systemic immunomodulation with soluble SA-FasL synergizes with SA-FasL-engineered islets for long-term survival. BALB/c islets were engineered with SA-FasL (mSA-FasL) or SA control (mSA) proteins and transplanted under the kidney capsule of STZ diabetic C57BL/6 mice. Soluble (s)SA-FasL was administered i.p. at 2-5 μg/mouse on days 1, 3, 5, 7 post-transplantation. In selected groups rapamycin was used at 0.2 mg/kg daily for 15 days starting the day of transplantation.
Treatment with soluble SA-FasL only under a short course of rapamycin was also effective, achieving >80% graft survival.

[7] = tested on: STZ diabetic C57BL/6 mice; assay: Intraportal allogeneic islet transplantation, SA-FasL and IL-2; assay type: in vivo; details: soluble SA-FasL as monotherapy
Protocol: BALB/c islets were transplanted intraportally into STZ diabetic age-matched males and females C57BL/6 mice.
These islets were then immediately transplanted intraportally into diabetic mice (450-550 islets/mouse). Mice were then treated with the indicated proteins and doses. Animals were monitored for diabetes, and those with two consecutive daily measurements of ≥250 mg/dl blood glucose level were considered diabetic and confirmation of graft failure.

[8] = tested on: C57BL/6 recipients of allogeneic BALB/c hearts; assay: Cardiac allograft survival, BALB/c-to-C57BL/6 model; assay type: in vivo, mice; details: IL-2 7 doses or SA-FasL 15 doses i.p., no other manipulation
From the text: We next tested if SA-FasL as a biologic can work as an immunomodulator to prevent rejection of vascularized solid grafts. Heart transplantation from BALB/c into C57BL/6 mice was used as a stringent allogeneic heart graft model.

[9] = tested on: NHP (rhesus monkey) PBMCs; assay: Apoptosis of NHP PBMC T cells cultured with SA-FasL (Annexin V, flow cytometry); assay type: cell-based; details: Teff (CD3+CD28-Fas+) or T central (CD3+CD28+Fas+) memory; PBMCs from 3 NHPs
Protocol: FIG. 3. SA-FasL induces apoptosis in nonhuman primate (NHP) Teff cells. NHP (rhesus monkey) PBMCs were cultured with SA-FasL and apoptosis was assessed using Annexin V by gating on CD3^+ T cells. Cells incubated with SA served as controls. Data is representative of PBMCs from 3 NHPs.
Inasmuch as individuals with onset of autoimmunity have a large pool of activated and memory T cells, we asked if SA-FasL is capable of inducing apoptosis in such cells. For this purpose, we used nonhuman primate (NHP) peripheral blood lymphocytes (PBMCs). The PBMCs from 3 different NHPs were incubated with SA-FasL protein and apoptosis was assessed using flow cytometry.

Sequence of avidin (P02701 25-152): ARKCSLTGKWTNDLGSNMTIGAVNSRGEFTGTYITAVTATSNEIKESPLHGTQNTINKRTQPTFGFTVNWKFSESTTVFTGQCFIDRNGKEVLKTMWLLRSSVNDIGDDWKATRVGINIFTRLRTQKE
Sequence of streptavidin (P22629 25-183): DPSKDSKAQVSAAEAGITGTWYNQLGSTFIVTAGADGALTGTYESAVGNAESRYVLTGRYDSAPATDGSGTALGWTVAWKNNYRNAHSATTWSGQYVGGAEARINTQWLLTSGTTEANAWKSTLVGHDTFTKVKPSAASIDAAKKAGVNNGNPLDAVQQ

O=P1(N(CCCl)CCCl)NCCCO1 (stereo not shown) [cyclophosphamide]
establishment of mixed hematopoietic allogeneic chimerism [1]: acted synergistically

O=C(O)CCCC[C@@H]1SC[C@@H]2NC(=O)N[C@@H]21 [biotin]
affinity for streptavidin [2]: 10^13 M^−1 | affinity for avidin [3]: 10^15 M^−1

B1: SA-FasL: chimeric protein of core streptavidin and the extracellular domain of FasL (rat FasL without metalloproteinase site); used unbound, in soluble form (protein)
chain: RSDYKDDDDKGTITGTWYNQLGSTFIVTAGADGALTGTYESAVGNAESRYVLTGRYDSAPATDGSGTALGWTVAWKNNYRNAHSATTWSGQYVGGAEARINTQWLLTSGATEANAWKSTLVGHDTFTKVKPSAASSGGGGSGGGGSGEFIANPSTPSETKKPRSVAHLTGNPRSRSIPLEWEDTYGTALISGVKYKKGGLVINEAGLYFVYSKVYFRGQSCNSQPLSHKVYMRNFKYPGDLVLMEEKKLNYCTTGQIWAHSSYLGAVFNLTVADHLYVNISQLSLINFEESKTFFGLYKL
islet graft survival ([4]; 4 doses of SA-FasL (2-5 μg/injection) i.v. or i.p. on days 1, 3, 5, 7, SA-FasL-engineered islets, intraportal): All BALB/c islets engineered with SA-FasL protein survived | mice that rejected the graft ([4]; soluble FasL 1 μg injection daily for 20 days from day of transplantation, no islet engineering, intraportal): one out of six | day of graft rejection post-transplantation ([4]; soluble FasL 1 μg injection daily for 20 days, the one rejecting mouse): 80 days | toxicity ([4]; soluble biologic at therapeutic doses): without toxicity | toxicity ([5]; 500 ng SA-FasL daily for 30 days): did not observe any sign of SA-FasL toxicity | onset and incidence of T1D vs controls ([5]; 500 ng SA-FasL daily for 30 days, 10-wk female NOD): significantly delayed the onset and incidence of T1D | temporary remission of hyperglycemia (fraction of mice) ([5]; 3 diabetic mice given additional 10 daily doses of SA-FasL soon after incidence of diabetes): ⅔ | time of delayed rejection ([6]; soluble SA-FasL 2-5 μg/mouse i.p. on days 1, 3, 5, 7, SA-FasL-islet grafts): ~70 days | recipients with delayed rejection of allogeneic SA-FasL-islet grafts (fraction) ([6]; soluble SA-FasL 2-5 μg/mouse i.p. on days 1, 3, 5, 7 post-transplantation, SA-FasL-engineered BALB/c islets under kidney capsule): ⅛ | graft survival ([6]; soluble SA-FasL only, under a short course of rapamycin): > 80% | allogeneic islets whose rejection was prevented [7]: ~60% | effect on cardiac graft survival, monotherapy [8]: moderate prolongation of the grafts | apoptosis of T cells [9]: Almost all T cells expressing Fas underwent apoptosis
